Measured values as given in the supplement of paper PMC5998384.

Legend:
[1] = system: HeLa Kyoto; assay: thermal stability score vs G1/S (z-score of summed log2 fold changes over temperatures); higher = more thermally stable than in G1/S
[2] = system: HeLa Kyoto; assay: solubility in G1/S (NP-40 vs SDS abundance) (log2 ratio); higher = more soluble; details: cell cycle stage: G1/S
[3] = system: HeLa Kyoto; assay: melting temperature (median over replicates), in situ; higher = more thermally stable
[4] = system: HeLa Kyoto; assay: solubility change mitosis vs G1/S (difference of NP-40 vs SDS log2 ratios) (log2 ratio difference); higher = more soluble in mitosis
[5] = cell cycle stage: early G1 (4.5 h after nocodazole release)
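Throughout, for melting temperature (median over replicates), in situ: HeLa Kyoto cells synchronized by double thymidine or nocodazole block, proteins quantified by TMT10plex mass spectrometry, three independent biological replicates.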
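Throughout, for solubility change mitosis vs G1/S (difference of NP-40 vs SDS log2 ratios): synchronized HeLa Kyoto cells (double thymidine block for G1/S, nocodazole release for mitosis), protein amounts in NP-40 versus SDS lysates quantified by mass spectrometry, three biological replicates.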
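Throughout, for solubility in G1/S (NP-40 vs SDS abundance): HeLa Kyoto cells arrested at G1/S by double thymidine block, proteins quantified by TMT10plex mass spectrometry in mild NP-40 versus SDS extracts, three biological replicates.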
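Throughout, for thermal stability score vs G1/S (z-score of summed log2 fold changes over temperatures): synchronized HeLa Kyoto cells, proteins quantified by TMT10plex mass spectrometry, three biological replicates, mitosis taken 0.5 h after nocodazole release, G1/S directly after double thymidine block.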

Sequence | thermal stability score [1, 5] | thermal stability score ([1]; cell cycle stage: mitosis) | solubility in G1/S (log2) [2] | melting temperature ([3]; cell cycle stage: G1/S) | melting temperature ([3]; cell cycle stage: mitosis) | solubility change mitosis (log2) [4]
MAKMEVKTSLLDNMIGVGDMVLLEPLNEETFINNLKKRFDHSEIYTYIGSVVISVNPYRSLPIYSPEKVEEYRNRNFYELSPHIFALSDEAYRSLRDQDKDQCILITGESGAGKTEASKLVMSYVAAVCGKGAEVNQVKEQLLQSNPVLEAFGNAKTVRNDNSSRFGKYMDIEFDFKGDPLGGVISNYLLEKSRVVKQPRGERNFHVFYQLLSGASEELLNKLKLERDFSRYNYLSLDSAKVNGVDDAANFRTVRNAMQIVGFMDHEAESVLAVVAAVLKLGNIEFKPESRVNGLDESKIKDKNELKEICELTGIDQSVLERAFSFRTVEAKQEKVSTTLNVAQAYYARDALAKNLYSRLFSWLVNRINESIKAQTKVRKKVMGVLDIYGFEIFEDNSFEQFIINYCNEKLQQIFIELTLKEEQEEYIREDIEWTHIDYFNNAIICDLIENNTNGILAMLDEECLRPGTVTDETFLEKLNQVCATHQHFESRMSKCSRFLNDTSLPHSCFRIQHYAGKVLYQVEGFVDKNNDLLYRDLSQAMWKASHALIKSLFPEGNPAKINLKRPPTAGSQFKASVATLMKNLQTKNPNYIRCIKPNDKKAAHIFNEALVCHQIRYLGLLENVRVRRAGYAFRQAYEPCLERYKMLCKQTWPHWKGPARSGVEVLFNELEIPVEEYSFGRSKIFIRNPRTLFKLEDLRKQRLEDLATLIQKIYRGWKCRTHFLLMKKSQIVIAAWYRRYAQQKRYQQTKSSALVIQSYIRGWKARKILRELKHQKRCKEAVTTIAAYWHGTQARRELRRLKEEARNKHAIAVIWAYWLGSKARRELKRLKEEARRKHAVAVIWAYWLGLKVRREYRKFFRANAGKKIYEFTLQRIVQKYFLEMKNKMPSLSPIDKNWPSRPYLFLDSTHKELKRIFHLWRCKKYRDQFTDQQKLIYEEKLEASELFKDKKALYPSSVGQPFQGAYLEINKNPKYKKLKDAIEEKIIIAEVVNKINRANGKSTSRIFLLTNNNLLLADQKSGQIKSEVPLVDVTKVSMSSQNDGFFAVHLKEGSEAASKGDFLFSSDHLIEMATKLYRTTLSQTKQKLNIEISDEFLVQFRQDKVCVKFIQGNQKNGSVPTCKRKNNRLLEVAVP [MYO1B] | -0.836 | -0.507 | -0.528 | 50.5 °C | 50.1 °C | -0.0354
MAKPAQGAKYRGSIHDFPGFDPNQDAEALYTAMKGFGSDKEAILDIITSRSNRQRQEVCQSYKSLYGKDLIADLKYELTGKFERLIVGLMRPPAYCDAKEIKDAISGIGTDEKCLIEILASRTNEQMHQLVAAYKDAYERDLEADIIGDTSGHFQKMLVVLLQGTREEDDVVSEDLVQQDVQDLYEAGELKWGTDEAQFIYILGNRSKQHLRLVFDEYLKTTGKPIEASIRGELSGDFEKLMLAVVKCIRSTPEYFAERLFKAMKGLGTRDNTLIRIMVSRSELDMLDIREIFRTKYEKSLYSMIKNDTSGEYKKTLLKLSGGDDDAAGQFFPEAAQVAYQMWELSAVARVELKGTVRPANDFNPDADAKALRKAMKGLGTDEDTIIDIITHRSNVQRQQIRQTFKSHFGRDLMTDLKSEISGDLARLILGLMMPPAHYDAKQLKKAMEGAGTDEKALIEILATRTNAEIRAINEAYKEDYHKSLEDALSSDTSGHFRRILISLATGHREEGGENLDQAREDAQVAAEILEIADTPSGDKTSLETRFMTILCTRSYPHLRRVFQEFIKMTNYDVEHTIKKEMSGDVRDAFVAIVQSVKNKPLFFADKLYKSMKGAGTDEKTLTRIMVSRSEIDLLNIRREFIEKYDKSLHQAIEGDTSGDFLKALLALCGGED [ANXA6] | 5.43 | 4.61 | 0.275 | 50 °C | 50 °C | -0.172
MAKQKRKVPEVTEKKNKKLKKASAEGPLLGPEAAPSGEGAGSKGEAVLRPGLDAEPELSPEEQRVLERKLKKERKKEERQRLREAGLVAQHPPARRSGAELALDYLCRWAQKHKNWRFQKTRQTWLLLHMYDSDKVPDEHFSTLLAYLEGLQGRARELTVQKAEALMRELDEEGSDPPLPGRAQRIRQVLQLLS [C7ORF50] | 0.0776 | 0.494 | -0.289 | 50 °C | 53.5 °C | 0.57
MAKRKEENFSSPKNAKRPRQEELEDFDKDGDEDECKGTTLTAAEVGIIESIHLKNFMCHSMLGPFKFGSNVNFVVGNNGSGKSAVLTALIVGLGGRAVATNRGSSLKGFVKDGQNSADISITLRNRGDDAFKASVYGNSILIQQHISIDGSRSYKLKSATGSVVSTRKEELIAILDHFNIQVDNPVSVLTQEMSKQFLQSKNEGDKYKFFMKATQLEQMKEDYSYIMETKERTKEQIHQGEERLTELKRQCVEKEERFQSIAGLSTMKTNLESLKHEMAWAVVNEIEKQLNAIRDNIKIGEDRAARLDRKMEEQQVRLNEAEQKYKDIQDKLEKISEETNARAPECMALKADVVAKKRAYNEAEVLYNRSLNEYKALKKDDEQLCKRIEELKKSTDQSLEPERLERQKKISWLKERVKAFQNQENSVNQEIEQFQQAIEKDKEEHGKIKREELDVKHALSYNQRQLKELKDSKTDRLKRFGPNVPALLEAIDDAYRQGHFTYKPVGPLGACIHLRDPELALAIESCLKGLLQAYCCHNHADERVLQALMKRFYLPGTSRPPIIVSEFRNEIYDVRHRAAYHPDFPTVLTALEIDNAVVANSLIDMRGIETVLLIKNNSVARAVMQSQKPPKNCREAFTADGDQVFAGRYYSSENTRPKFLSRDVDSEISDLENEVENKTAQILNLQQHLSALEKDIKHNEELLKRCQLHYKELKMKIRKNISEIRELENIEEHQSVDIATLEDEAQENKSKMKMVEEHMEQQKENMEHLKSLKIEAENKYDAIKFKINQLSELADPLKDELNLADSEVDNQKRGKRHYEEKQKEHLDTLNKKKRELDMKEKELEEKMSQARQICPERIEVEKSASILDKEINRLRQKIQAEHASHGDREEIMRQYQEARETYLDLDSKVRTLKKFIKLLGEIMEHRFKTYQQFRRCLTLRCKLYFDNLLSQRAYCGKMNFDHKNETLSISVQPGEGNKAAFNDMRALSGGERSFSTVCFILSLWSIAESPFRCLDEFDVYMDMVNRRIAMDLILKMADSQRFRQFILLTPQSMSSLPSSKLIRILRMSDPERGQTTLPFRPVTQEEDDDQR [SMC6] | 0.465 | -0.0501 | -0.133 | 50.6 °C | 50.4 °C | 0.0261
MALDVKSRAKRYEKLDFLGEGQFATVYKARDKNTNQIVAIKKIKLGHRSEAKDGINRTALREIKLLQELSHPNIIGLLDAFGHKSNISLVFDFMETDLEVIIKDNSLVLTPSHIKAYMLMTLQGLEYLHQHWILHRDLKPNNLLLDENGVLKLADFGLAKSFGSPNRAYTHQVVTRWYRAPELLFGARMYGVGVDMWAVGCILAELLLRVPFLPGDSDLDQLTRIFETLGTPTEEQWPDMCSLPDYVTFKSFPGIPLHHIFSAAGDDLLDLIQGLFLFNPCARITATQALKMKYFSNRPGPTPGCQLPRPNCPVETLKEQSNPALAIKRKRTEALEQGGLPKKLIF [CDK7] | 0.106 | 1.13 | 0.167 | 51 °C | 51 °C | -0.142
MALGLKCFRMVHPTFRNYLAASIRPVSEVTLKTVHERQHGHRQYMAYSAVPVRHFATKKAKAKGKGQSQTRVNINAALVEDIINLEEVNEEMKSVIEALKDNFNKTLNIRTSPGSLDKIAVVTADGKLALNQISQISMKSPQLILVNMASFPECTAAAIKAIRESGMNLNPEVEGTLIRVPIPQVTREHREMLVKLAKQNTNKAKDSLRKVRTNSMNKLKKSKDTVSEDTIRLIEKQISQMADDTVAELDRHLAVKTKELLG [MRRF] | -2.43 | -2.36 | 0.605 | 50.1 °C | 51.3 °C | 0.328
MALKQISSNKCFGGLQKVFEHDSVELNCKMKFAVYLPPKAETGKCPALYWLSGLTCTEQNFISKSGYHQSASEHGLVVIAPDTSPRGCNIKGEDESWDFGTGAGFYVDATEDPWKTNYRMYSYVTEELPQLINANFPVDPQRMSIFGHSMGGHGALICALKNPGKYKSVSAFAPICNPVLCPWGKKAFSGYLGTDQSKWKAYDATHLVKSYPGSQLDILIDQGKDDQFLLDGQLLPDNFIAACTEKKIPVVFRLQEGYDHSYYFIATFITDHIRHHAKYLNA [ESD] | -1.51 | -2.28 | -0.0889 | 55.8 °C | 56.4 °C | -0.0867
MALLALLLVVALPRVWTDANLTARQRDPEDSQRTDEGDNRVWCHVCERENTFECQNPRRCKWTEPYCVIAAVKIFPRFFMVAKQCSAGCAAMERPKPEEKRFLLEEPMPFFYLKCCKIRYCNLEGPPINSSVFKEYAGSMGESCGGLWLAILLLLASIAAGLSLS [LY6K] | 2.6 | 2.04 | 0.0392 | 52.6 °C | 52.9 °C | -0.107
MALLAMHSWRWAAAAAAFEKRRHSAILIRPLVSVSGSGPQWRPHQLGALGTARAYQIPESLKSITWQRLGKGNSGQFLDAAKALQVWPLIEKRTCWHGHAGGGLHTDPKEGLKDVDTRKIIKAMLSYVWPKDRPDLRARVAISLGFLGGAKAMNIVVPFMFKYAVDSLNQMSGNMLNLSDAPNTVATMATAVLIGYGVSRAGAAFFNEVRNAVFGKVAQNSIRRIAKNVFLHLHNLDLGFHLSRQTGALSKAIDRGTRGISFVLSALVFNLLPIMFEVMLVSGVLYYKCGAQFALVTLGTLGTYTAFTVAVTRWRTRFRIEMNKADNDAGNAAIDSLLNYETVKYFNNERYEAQRYDGFLKTYETASLKSTSTLAMLNFGQSAIFSVGLTAIMVLASQGIVAGTLTVGDLVMVNGLLFQLSLPLNFLGTVYRETRQALIDMNTLFTLLKVDTQIKDKVMASPLQITPQTATVAFDNVHFEYIEGQKVLSGISFEVPAGKKVAIVGGSGSGKSTIVRLLFRFYEPQKGSIYLAGQNIQDVSLESLRRAVGVVPQDAVLFHNTIYYNLLYGNISASPEEVYAVAKLAGLHDAILRMPHGYDTQVGERGLKLSGGEKQRVAIARAILKDPPVILYDEATSSLDSITEETILGAMKDVVKHRTSIFIAHRLSTVVDADEIIVLDQGKVAERGTHHGLLANPHSIYSEMWHTQSSRVQNHDNPKWEAKKENISKEEERKKLQEEIVNSVKGCGNCSC [ABCB7] | -0.909 | -1.83 | -0.121 | 52.5 °C | 51.6 °C | -0.12
MALLLCFVLLCGVVDFARSLSITTPEEMIEKAKGETAYLPCKFTLSPEDQGPLDIEWLISPADNQKVDQVIILYSGDKIYDDYYPDLKGRVHFTSNDLKSGDASINVTNLQLSDIGTYQCKVKKAPGVANKKIHLVVLVKPSGARCYVDGSEEIGSDFKIKCEPKEGSLPLQYEWQKLSDSQKMPTSWLAEMTSSVISVKNASSEYSGTYSCTVRNRVGSDQCLLRLNVVPPSNKAGLIAGAIIGTLLALALIGLIIFCCRKKRREEKYEKEVHHDIREDVPPPKSRTSTARSYIGSNHSSLGSMSPSNMEGYSKTQYNQVPSEDFERTPQSPTLPPAKVAAPNLSRMGAIPVMIPAQSKDGSIV [CXADR] | -1.74 | -2.2 | 0.245 | 59.4 °C | 57.6 °C | -0.112
MALLRGVFVVAAKRTPFGAYGGLLKDFTATDLSEFAAKAALSAGKVSPETVDSVIMGNVLQSSSDAIYLARHVGLRVGIPKETPALTINRLCGSGFQSIVNGCQEICVKEAEVVLCGGTESMSQAPYCVRNVRFGTKLGSDIKLEDSLWVSLTDQHVQLPMAMTAENLAVKHKISREECDKYALQSQQRWKAANDAGYFNDEMAPIEVKTKKGKQTMQVDEHARPQTTLEQLQKLPPVFKKDGTVTAGNASGVADGAGAVIIASEDAVKKHNFTPLARIVGYFVSGCDPSIMGIGPVPAISGALKKAGLSLKDMDLVEVNEAFAPQYLAVERSLDLDISKTNVNGGAIALGHPLGGSGSRITAHLVHELRRRGGKYAVGSACIGGGQGIAVIIQSTA [ACAA2] | -3.39 | -4.11 | 0.213 | 59.3 °C | 59.2 °C | -0.0842
